Experimental data from patent publication US20240301031A1 (JIANGSU HENGRUI PHARMACEUTICALS, published 2024).

Tests used:
[1] = target: T1, human BAFF (10056-HNCH, Sino biological) (human, UniProt Q9Y275 134-285); assay: competition ELISA: BAFF-R coated on the plate, biotin-labelled BAFF at a fixed concentration pre-incubated with the diluted sample, streptavidin-HRP, OD450 (blocked ligand-receptor pair: BAFF/BAFF-R)
T1 construct: Bought protein
Description: (§1) A receptor protein was diluted to 2 μg/mL with PBS at pH 7.4 (BasalMedia, B320) and added to a 96-well microplate (Corning, 3590) at 100 μL/well. The plate was incubated at 4° C. overnight. After the liquid was discarded, 200 μL of 1% Casein blocking solution (Thermo, 37528) was added to each well for blocking, and the plate was incubated at 37° C. for 2 h. After the blocking was completed, the blocking solution was discarded, and the plate was washed 3 times with a PBST buffer (PBS at pH 7.4 containing 0.1% tween-20) for later use. A biotin-labeled ligand protein at a fixed concentration was mixed with the antibody or fusion protein diluted in gradient, pre-incubated at 37° C. for 30 min, and added to a blocked microplate. The plate was incubated at 37° C. for 1.5 h. After the incubation was completed, the plate was washed 3 times with PBST. 100 μL of streptavidin-HRP (Invitrogen, 434323, diluted at a ratio of 1:4000) was added to each well, and the plate was incubated at 37° C. for 1 h. The supernatant was removed, and the plate was washed 3 times with PBST. […] The plate was read for absorbance values at 450 nm on a microplate reader, the curves for the inhibition of the binding of the ligands to the receptors were fitted with software, and the IC₅₀ values were calculated. […]

[2] = target: T2, BAFF (ACROBiosystems, BAF-H5248) (UniProt Q9Y275 134-285); assay: ELISA, fusion protein coated, BAFF titrated, Anti-His-HRP
T2 construct: Bought protein used in the ELISA with coated test sample
Description: The binding activity of the TACI fusion proteins for BAFF and APRIL was assayed by the ELISA method (coating a test fusion protein sample). The specific procedures were as follows:
The test sample was diluted to 2 μg/mL with a PBS (BasalMedia, B320) buffer at pH 7.4 and added to a 96-well microplate (Corning, 3590) at 100 μL/well. The plate was incubated at 4° C. overnight. After the liquid was discarded, 300 μL of 5% skim milk (BD, 232100) diluted with PBS was added to each well for blocking, and the plate was incubated at 37° C. for 2 h. After the blocking was completed, the blocking solution was discarded, and the plate was washed 3 times with a PBST buffer (PBS at pH 7.4 containing 0.1% tween-20). 100 μL of BAFF (ACROBiosystems, BAF-H5248) or APRIL (R&D Systems, 5860-AP-010/CF) diluted in a gradient was added to each well, and the plate was incubated at 37° C. for 1 h. After the incubation, the plate was washed 3 times with PBST. When detecting the binding to BAFF, 100 μL of Anti-His-HRP (Sino biological, 105327-MM02T-H, diluted at a ratio of 1:2000) was added to each well; when detecting the binding to APRIL, 100 μL of anti-HA-HRP (Abcam, ab1190, diluted at a ratio of 1:4000) was added to each well. The plate was incubated at 37° C. for 1 h. The plate was washed 3 times with PBST. 100 μL of TMB chromogenic substrate (KPL, 5120-0077) was added to each well, and the plate was incubated at room temperature for 10-15 min. The reaction was stopped by adding 50 μL of 1 M H₂SO₄ to each well. The plate was read for absorbance values at 450 nm on a microplate reader, the binding curves of the antibodies to an antigen were fitted with software, and the EC₅₀ values were calculated.

[3] = target: T1, human BAFF (10056-HNCH, Sino biological); assay: competition ELISA: biotin-labeled BAFF to coated BCMA
Description: as §1

[4] = target: T3, IL-12/23 p40 (Sino biological, 10052-H08H) (UniProt P29460 23-328); assay: ELISA, IL-12/23 p40 coated
T3 construct: Bought protein
T3 sequence (looked up): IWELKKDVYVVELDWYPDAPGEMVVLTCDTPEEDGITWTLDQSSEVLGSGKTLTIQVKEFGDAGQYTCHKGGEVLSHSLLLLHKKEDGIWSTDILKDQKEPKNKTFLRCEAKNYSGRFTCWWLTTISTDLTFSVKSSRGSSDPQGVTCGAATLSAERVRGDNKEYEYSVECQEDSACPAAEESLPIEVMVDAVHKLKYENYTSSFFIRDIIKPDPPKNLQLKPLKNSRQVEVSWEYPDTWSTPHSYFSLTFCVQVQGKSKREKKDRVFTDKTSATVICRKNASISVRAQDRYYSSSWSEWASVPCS

[5] = target: T1, human BAFF (10056-HNCH, Sino biological); assay: competition ELISA: biotin-labeled BAFF to coated TACI
Description: as §1

[6] = target: BAFF (R&D Systems, 7537-BF) (UniProt Q9Y275 134-285); assay: cell-based or functional assay

B1: RCT-18 (Telitacicept) (Fc fusion)
chain: SRVDQEERFPQGLWTGVAMRSCPEEQYWDPLLGTCMSCKTICNHQSQRTCAAFCRSLSCRKEQGKFYDHLLRDCISCASICGQHPKQCAYFCENKLRSPVNLPPELDKTHTCPPCPAPEAEGAPSVFLFPPKPKDTLMISRTPEVTCVVVDVSHEDPEVKFNWYVDGVEVHNAKTKPREEQYNSTYRVVSVLTVLHQDWLNGKEYKCKVSNKALPSSIEKTISKAKGQPREPQVYTLPPSRDELTKNQVSLTCLVKGFYPSDIAVEWESNGQPENNYKTTPPVLDSDGSFFLYSKLTVDKSRWQQGNVFSCSVMHEALHNHYTQKSLSLSPGK
notes: Positive control; TACI part is positions 13-118 of the extracellular region of human TACI, the rest is Fc
[1]
  IC50 (read off the curve): ~3 nM
[2]
  EC50: 96.2 nM
[3]
  IC50: 0.973 nM
[4]
  binding result: no binding
[5]
  IC50: 0.779 nM
[6]
  IC50 (nM) for the inhibition of the BAFF-induced B cell proliferation: 0.386 nM
